This is an account of results in US20160289698A1 (TRUSTEES OF DARTMOUTH COLLEGE, published 2016).

The target in experiment [1] is T1, ARR19 (subfamily-2) (Arabidopsis, UniProt Q9M9B9 1-407, limits assumed).
T1 sequence (looked up): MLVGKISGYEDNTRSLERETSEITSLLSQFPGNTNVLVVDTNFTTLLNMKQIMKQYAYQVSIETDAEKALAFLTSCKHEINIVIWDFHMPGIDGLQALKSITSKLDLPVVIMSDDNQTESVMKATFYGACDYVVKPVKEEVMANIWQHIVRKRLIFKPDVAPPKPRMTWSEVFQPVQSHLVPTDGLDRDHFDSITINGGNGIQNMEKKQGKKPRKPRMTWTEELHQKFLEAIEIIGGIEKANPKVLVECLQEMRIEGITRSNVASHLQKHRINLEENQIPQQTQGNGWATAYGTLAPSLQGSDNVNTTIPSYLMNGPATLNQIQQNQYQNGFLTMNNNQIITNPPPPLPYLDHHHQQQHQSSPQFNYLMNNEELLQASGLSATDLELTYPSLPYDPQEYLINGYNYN
Nature of the experiment: yeast two-hybrid (LexA-KMD bait, B42-ARR prey, X-gal). The method in brief: (§1)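 LexA DNA-binding-domain KMD bait fusions (pGilda) and B42 activation-domain type-B ARR prey fusions (pJG4-5) were co-transformed into yeast EGY48 carrying the lacZ reporter plasmid pSH18-34. Interaction was scored by colour on X-gal medium.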

For experiment [2], the target named is T2, ARR2 (Arabidopsis, UniProt Q9ZWJ9 1-664, limits assumed).
T2 construct: also called type-B response regulator ARR2
T2 sequence (looked up): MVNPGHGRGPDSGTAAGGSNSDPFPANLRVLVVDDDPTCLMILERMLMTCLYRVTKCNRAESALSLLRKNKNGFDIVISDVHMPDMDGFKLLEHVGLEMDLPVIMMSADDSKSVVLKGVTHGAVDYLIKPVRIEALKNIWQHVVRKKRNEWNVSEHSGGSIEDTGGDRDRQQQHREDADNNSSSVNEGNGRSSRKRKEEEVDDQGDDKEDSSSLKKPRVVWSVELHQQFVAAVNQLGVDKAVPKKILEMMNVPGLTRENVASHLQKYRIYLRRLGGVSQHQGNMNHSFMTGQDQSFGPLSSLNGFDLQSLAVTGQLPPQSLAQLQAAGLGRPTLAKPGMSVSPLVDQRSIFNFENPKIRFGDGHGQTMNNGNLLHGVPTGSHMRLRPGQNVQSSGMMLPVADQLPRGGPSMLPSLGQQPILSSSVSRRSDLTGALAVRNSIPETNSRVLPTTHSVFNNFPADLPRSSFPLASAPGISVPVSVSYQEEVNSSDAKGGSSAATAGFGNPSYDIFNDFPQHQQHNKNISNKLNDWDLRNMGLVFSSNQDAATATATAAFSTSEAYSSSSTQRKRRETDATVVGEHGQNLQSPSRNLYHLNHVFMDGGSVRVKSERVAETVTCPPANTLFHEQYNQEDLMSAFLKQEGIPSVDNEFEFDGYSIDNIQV
The description is as above. The method, boiled down:
as §1

For experiment [3], the target named is T3, ARR12 (133-596) (Arabidopsis, UniProt P62598 133-596).
T3 construct: range 133-596; Fused to a YFP fragment for BiFC; also called C-terminal domain of ARR12
T3 sequence (looked up): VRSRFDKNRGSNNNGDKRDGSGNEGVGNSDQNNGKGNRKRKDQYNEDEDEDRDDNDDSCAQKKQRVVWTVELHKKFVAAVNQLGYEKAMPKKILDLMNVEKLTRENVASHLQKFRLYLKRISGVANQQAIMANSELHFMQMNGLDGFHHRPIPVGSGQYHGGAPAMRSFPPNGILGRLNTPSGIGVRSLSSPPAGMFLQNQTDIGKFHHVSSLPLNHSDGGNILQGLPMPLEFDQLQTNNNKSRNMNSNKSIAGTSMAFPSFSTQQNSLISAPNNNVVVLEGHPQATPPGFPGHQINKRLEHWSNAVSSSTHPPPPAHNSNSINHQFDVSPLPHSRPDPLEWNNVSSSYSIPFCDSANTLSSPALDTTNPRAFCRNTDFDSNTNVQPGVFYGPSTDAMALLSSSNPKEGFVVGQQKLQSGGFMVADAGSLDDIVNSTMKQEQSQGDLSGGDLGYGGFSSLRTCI
Nature of the experiment: BiFC with ARR fragments.

B1: KISS ME DEADLY 2 (KMD2) (other, Arabidopsis, UniProt Q9LMR5 1-359, looked up)
chain: MELIPDLPETVAYECLLRSSYKQFPLMASVCKLWQREISLSDFFRHRKASGHSQELVVLSQARVDPVKELVSGNKTIPTPVYRISVLELGTGLRSELPPVPGHSNGLPLFCRLVSVGSDLVVLCGLDPVTWRTSDSVFVFSFLTSTWRVGKSMPGGPRSFFACASDSQRNVFVAGGHDEDKNAMMSALVYDVAEDRWAFLPDMGRERDECTAIFHAGKFHVIGGYSTEEQGQFSKTAESFDVTTWRWSPQGEEFLSSEMTMWPPICAAGENGDLYACCRRDLMMMKDDTWYKVGNLPADVCNVSYVAIRRSGNLVVIGSARYGEPSVGYNWDMSNSRWLKLETHDKYEGHVQAGCFLEI
notes: Full-length protein; LexA fusion in yeast two-hybrid, YFP^N or YFP^C fusion in BiFC; also called At1g15670
With B1, the binding result is recorded as “no binding” in experiment [1] and “binds” in experiment [2].

B2: KISS ME DEADLY 1 (KMD1) (other, Arabidopsis, UniProt Q9M8L2 1-354, looked up)
chain: MELIPNLPDDVARECLLRSSYQQFPVIASVCRAWNREVSLSQFLHQRKASRHSQELLILSQARVDPAGSGKIIATPEYRISVLESGSGLWTELPPIPGQTKGLPLFCRLVSVGSDLIVLGGLDPITWQAHDSVFVFSFLTSKWRVGATMPGVRRSFFGCASDSDRTVLVAGGHNEEKCALTSAMVYDVSEDKWTFLPDMARERDECKAVFHAGRFHVIGGYATEEQGQFSKTAESFDVSTWEWGPLTEDFLDDTGDTVSPPTCVAGGDLYACWGGDVMMFLNDKWQKVGQIPADVYNVTYVAVRPGMLIVIGNGKALAGYGEATVGYICDLSSSRWVKLETHGGHVQAGCFLEV
notes: Full-length protein; also called At1g80440
As for B2, the binding result in experiment [1] was “no binding”; in experiment [2] it was “binds”; in experiment [3] it was “binds”.
